Results on 2 molecules are retold here after article PMC4673829, “Chemical basis for the recognition of trimethyllysine by epigenetic reader proteins” (Nature Communications, 2015).

One assay deals with T1, JMJD2A tudor domains.
T1 sequence (O75164 whole entry, species assumed, looked up): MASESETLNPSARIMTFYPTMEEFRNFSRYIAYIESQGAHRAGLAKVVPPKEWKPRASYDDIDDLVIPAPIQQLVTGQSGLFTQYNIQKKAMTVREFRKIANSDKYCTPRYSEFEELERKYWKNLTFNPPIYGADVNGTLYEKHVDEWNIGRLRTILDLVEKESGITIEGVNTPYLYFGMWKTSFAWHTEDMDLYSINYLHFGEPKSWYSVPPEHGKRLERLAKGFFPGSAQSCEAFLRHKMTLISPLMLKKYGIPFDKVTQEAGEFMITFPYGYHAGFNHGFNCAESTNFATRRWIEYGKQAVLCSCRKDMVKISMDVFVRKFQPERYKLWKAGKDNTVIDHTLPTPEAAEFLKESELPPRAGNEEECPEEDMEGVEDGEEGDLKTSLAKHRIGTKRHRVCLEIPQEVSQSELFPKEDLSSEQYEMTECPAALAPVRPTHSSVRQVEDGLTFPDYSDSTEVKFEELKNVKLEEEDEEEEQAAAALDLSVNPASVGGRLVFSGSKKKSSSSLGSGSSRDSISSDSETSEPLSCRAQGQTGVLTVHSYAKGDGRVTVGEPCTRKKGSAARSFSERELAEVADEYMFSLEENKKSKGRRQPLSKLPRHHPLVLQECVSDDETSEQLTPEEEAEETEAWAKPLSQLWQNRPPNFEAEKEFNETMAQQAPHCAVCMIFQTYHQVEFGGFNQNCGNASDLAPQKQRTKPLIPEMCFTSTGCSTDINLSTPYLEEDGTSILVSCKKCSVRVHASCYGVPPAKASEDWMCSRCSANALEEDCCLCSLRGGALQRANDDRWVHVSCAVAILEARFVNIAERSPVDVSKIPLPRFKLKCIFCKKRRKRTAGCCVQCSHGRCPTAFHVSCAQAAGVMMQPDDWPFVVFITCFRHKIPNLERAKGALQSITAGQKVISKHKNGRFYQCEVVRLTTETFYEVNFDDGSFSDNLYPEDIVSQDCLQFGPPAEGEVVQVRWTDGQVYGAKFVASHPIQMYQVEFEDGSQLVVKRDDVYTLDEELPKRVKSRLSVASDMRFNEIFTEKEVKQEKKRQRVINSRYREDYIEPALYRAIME
Kind of assay: ITC; 350–600 μM H3K4me3 or H3C4me3 peptide titrated to 25–40 μM protein (JMJD2A–H3C4me3: 3 mM peptide to 200 μM JMJD2A); 19 injections; Microcal Auto-iTC200; one set of sites model; 5–7 repeats. For orientation: ITC needs no label: the signal is the heat of the interaction.

The target in assay [1] is JARID1A PHD3 domain (for ITC). The assay is described as above.
The target in assay [2] is SGF29 tandem tudor domain (for ITC). The assay is described as above.
Sequence of SGF29 tandem tudor domain (for ITC) (Q96ES7 whole entry, the tested form may be a part): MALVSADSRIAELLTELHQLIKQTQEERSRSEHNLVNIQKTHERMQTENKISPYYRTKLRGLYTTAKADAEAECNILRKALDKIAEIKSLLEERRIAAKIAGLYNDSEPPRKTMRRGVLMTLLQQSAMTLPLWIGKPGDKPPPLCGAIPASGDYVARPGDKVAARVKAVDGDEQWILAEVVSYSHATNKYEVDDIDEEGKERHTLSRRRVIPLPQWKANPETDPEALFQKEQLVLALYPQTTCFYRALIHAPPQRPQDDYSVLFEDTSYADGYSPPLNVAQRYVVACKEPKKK
In assay [3] the target is JARID1A PHD3 domain (for ITC). The experiment in a line: ITC; H3G4 (5 mM) titrated to JARID1A (330 μM), H3G4 (3 mM) titrated to TAF3 (200 μM); 19 injections; Microcal Auto-iTC200; one set of sites model.

Ends that are not written are not given here. Me3 = trimethyllysine (Kme3)

A word on the Kd: it is the free concentration of one partner at which half of the binding sites on the other are occupied at equilibrium, for simple one-to-one binding. For the molecule ARTK(Me3)QTARKS-OH [10-mer H3K4me3 histone peptide], the Kd with JMJD2A tudor domains came to 940 nM; in assay [1] it was 94 nM; in assay [2], 1700 nM. For the same molecule, the dH is -13.1 kcal/mol in the assay with JMJD2A tudor domains, -11 kcal/mol in assay [1] and -7.7 kcal/mol in assay [2].

In assay [3], ARTGQTARKS-OH [10-mer H3G4 histone peptide] came in with a Kd of 88000 nM and a dH of -2.1 kcal/mol.
